Results taken from paper PMC4729479.

Target: hemagglutinin-esterase-fusion glycoprotein (HEF) of influenza D virus D/swine/Oklahoma/1334/2011, ectodomain (influenza D virus (D/swine/Oklahoma/1334/2011))
Experiment: crystal structure

hemagglutinin-esterase-fusion glycoprotein (HEF) of influenza D virus D/swine/Oklahoma/1334/2011, ectodomain (domain or fragment)
stoichiometry N: 3
